Substitutions are numbered along the chain they refer to. Read-outs that look alike come from different tables or passages of the source. No end group written: not given here. *: point of attachment. Biotin = O=C1N[C@H]2[C@H](CS[C@H]2CCCCC(=O)*)N1
B1: IGX7128 (antibody, V domains shown)
VH: EVQLVQSGADVKKPGASLTISCQASGYTFTDYWISWVRQKPGKGLEWMGAIAPSTSKTEYGPSFQGHVTISADRSTATAYLQWRSLEASDTAMYYCVRQSAQTDSWGPGTLVTVSS
VL: SYELTQPPSVSVSPGQTARITCSGDALPKKYAYWYQQKSGQAPVLVIYEDRKRYSGIPERFSGSSSGTMATLTISGAQVEDEADYYCYSKAAKGNYMVFGGGTKLTVL
B2: mAb IGX7137 (antibody, V domains shown)
VH: B1 VH with A24T, F29L, A52S, S54A, T55N, K57R, E59S, I70F, S100G, S105R
VL: B1 VL with S13P, R51M, Y54P, M69T, A92F, K93D, M97F
notes: heavy-chain variable region from the Epivolve scFv; mouse IgG2 heavy-chain constant region; light-chain variable region LC2 (shared with IGX7140); mouse light-chain constant domain; Mouse IgG2 with variable regions from the Epivolve scFv; source: HEK293-E, transfected (pTT5), purified from supernatant (Protein A)
B3: IGX7134 (antibody, V domains shown)
VH: B1 VH with D10V, I34F, H67L, Y80N, S100G, Q102H
VL: B1 VL
B4: mAb IGX7141 (antibody, V domains shown)
VH: B1 VH with A52S, S54A, T55N, K57R, E59S, I70F, S100G
VL: B1 VL with R51M, Y54P, A92S, K93D, M97F
notes: heavy-chain variable region from the Epivolve scFv; mouse IgG2 heavy-chain constant region; light-chain variable region LC3; mouse light-chain constant domain; Mouse IgG2 with variable regions selected from a human scFv phage library (Epivolve) and matured by error-prone PCR; source: HEK293-E, transfected (pTT5), purified from supernatant (Protein A)
B5: mAb IGX7140 (antibody, V domains shown)
VH: B1 VH with F29L, A52S, S54A, T55N, K57R, E59S, I70F, S100G, S105R
VL: B1 VL with S13P, R51M, Y54P, M69T, A92F, K93D, M97F
notes: heavy-chain variable region from the Epivolve scFv; mouse IgG2 heavy-chain constant region; light-chain variable region LC2 (as the light chain of m2); mouse light-chain constant domain; Mouse IgG2 with variable regions from the Epivolve scFv; also called IXG7140; source: HEK293-E, transfected (pTT5), purified from supernatant (Protein A)

How the values were obtained:
[1] = biological target: T1, Tp BamA β-barrel (TP0326) (Treponema pallidum subsp. pallidum, …, UniProt O83346)
Target sequence in this assay (O83346 434-837): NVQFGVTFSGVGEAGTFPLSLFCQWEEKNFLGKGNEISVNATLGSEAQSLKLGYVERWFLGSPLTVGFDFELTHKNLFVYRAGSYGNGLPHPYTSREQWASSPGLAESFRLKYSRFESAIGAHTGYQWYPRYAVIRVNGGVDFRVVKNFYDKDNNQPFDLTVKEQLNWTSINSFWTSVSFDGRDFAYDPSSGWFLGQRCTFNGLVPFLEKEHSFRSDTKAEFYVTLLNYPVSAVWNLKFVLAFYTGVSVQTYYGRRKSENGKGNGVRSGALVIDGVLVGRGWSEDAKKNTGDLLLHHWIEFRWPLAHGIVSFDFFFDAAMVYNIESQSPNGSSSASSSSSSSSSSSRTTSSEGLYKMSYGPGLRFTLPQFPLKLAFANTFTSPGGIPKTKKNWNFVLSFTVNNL

[2] = biological target: T2, BamA ECL4 peptide S2, native (Treponema pallidum subsp. pallidum, …)
T2 chain: Biotin-RVVKNFYDKDNNQPFDL

[3] = biological target: T1, Tp BamA β-barrel (TP0326); assay: immunoblot; 200 to 1 ng of PfTrx^BamA/ECL4 or of BamA β-barrel (in 8M urea, Laemmli buffer) resolved by SDS-PAGE, transferred to nitrocellulose, probed with mAb at 4 μg/ml; details: both partners purified
Target sequence in this assay (O83346 whole entry, looked up): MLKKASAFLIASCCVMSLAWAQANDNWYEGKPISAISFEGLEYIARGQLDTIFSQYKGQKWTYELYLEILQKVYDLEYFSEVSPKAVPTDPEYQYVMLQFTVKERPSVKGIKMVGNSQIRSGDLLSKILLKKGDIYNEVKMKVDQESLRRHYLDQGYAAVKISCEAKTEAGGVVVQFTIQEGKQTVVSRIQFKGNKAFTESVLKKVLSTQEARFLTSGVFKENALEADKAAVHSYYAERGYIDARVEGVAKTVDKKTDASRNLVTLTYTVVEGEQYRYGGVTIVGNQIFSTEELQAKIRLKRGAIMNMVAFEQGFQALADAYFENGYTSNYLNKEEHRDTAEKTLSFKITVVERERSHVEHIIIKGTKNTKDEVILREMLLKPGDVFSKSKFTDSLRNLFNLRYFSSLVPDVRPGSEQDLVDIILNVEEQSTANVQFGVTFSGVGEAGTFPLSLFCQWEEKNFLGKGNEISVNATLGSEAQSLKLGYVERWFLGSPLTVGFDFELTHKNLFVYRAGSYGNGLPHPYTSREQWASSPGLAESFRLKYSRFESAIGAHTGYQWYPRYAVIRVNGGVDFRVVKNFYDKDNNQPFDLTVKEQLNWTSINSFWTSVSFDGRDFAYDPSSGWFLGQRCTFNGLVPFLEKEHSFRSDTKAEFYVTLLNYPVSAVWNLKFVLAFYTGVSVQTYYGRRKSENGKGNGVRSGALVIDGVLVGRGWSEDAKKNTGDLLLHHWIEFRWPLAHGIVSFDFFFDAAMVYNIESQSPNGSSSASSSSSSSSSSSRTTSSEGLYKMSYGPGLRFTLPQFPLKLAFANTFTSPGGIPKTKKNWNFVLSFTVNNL

Binder | binding result [1] | binding result [2] | binding result [3]
B1 | binds | binds | 
B2 |  |  | binds
B3 | binds | binds | 
B4 |  |  | binds
B5 |  |  | binds

Source: article PMC10478084, “Use of Epivolve phage display to generate a monoclonal antibody with opsonic activity directed against a subdominant epitope on extracellular loop 4 of Treponema pallidum BamA (TP0326)” (Frontiers in Immunology, 2023)
